Experimental data taken from patent US20180327473A1 (published 2018).

T1: human alpha fetoprotein (hAFP158) peptide on HLA-A2 (human)
T1 peptide: FMNKFIYEI


Target: T1, human alpha fetoprotein (hAFP158) …
Test: multimer staining

Row | binding result | Binder
1 | recognises | mTCR-1 (TCR, V domains shown) Valpha: QQKVQQSPESLIVPEGGMASLNCTSSDRNVDYFWWYRQHSGKSPKMLMSIFSNGEKEEGRFTVHLNKASLHTSLHIRDSQPSDSALYLCAASITNAYKVIFGKGTHLHVLP Vbeta: EAAVTQSPRNKVTVTGGNVTLSCRQTNSHNYMYWYRQDTGHGLRLIHYSYGAGNLQIGDVPDGYKATRTTQEDFFLLLELASPSQTSLYFCASSDAGTSQNTLYFGAGTRLSVL
2 | recognises | mTCR-8 (TCR, V domains shown) Valpha: QQKVQQSPESLIVPEGGMASLNCTSSDRNVDYFWWYRQHSGKSPKMLMSIFSNGEKEEGRFTVHLNKASLHTSLHIRDSQPSDSALYLCAASISGGYKVVFGSGTRLLVSP Vbeta: EAAVTQSPRNKVTVTGGNVTLSCRQTNSHNYMYWYRQDTGHGLRLIHYSYGAGNLQIGDVPDGYKATRTTQEDFFLLLELASPSQTSLYFCASSDAGTSQNTLYFGAGTRLSVL
3 | recognises | mTCR-2 (TCR, V domains shown) Valpha: QQKVQQSPESLIVPEGGMASLNCTSSDRNVDYFWWYRQHSGKSPKMLMSIFSNGEKEEGRFTVHLNKASLHTSLHIRDSQPSDSALYLCAASTVNAYKVIFGKGTHLHVLP Vbeta: EAAVTQSPRNKVTVTGGNVTLSCRQTNSHNYMYWYRQDTGHGLRLIHYSYGAGNLQIGDVPDGYKATRTTQEDFFLLLELASPSQTSLYFCASSDAGTSQNTLYFGAGTRLSVL
4 | recognises | mTCR-6 (TCR, V domains shown) Valpha: QQKVQQSPESLIVPEGGMASLNCTSSDRNVDYFWWYRQHSGKSPKMLMSIFSNGEKEEGRFTVHLNKASLHTSLHIRDSQPSDSALYLCAASMINAYKVIFGKGTHLHVLP Vbeta: EAAVTQSPRNKVTVTGGNVTLSCRQTNSHNYMYWYRQDTGHGLRLIHYSYGAGNLQIGDVPDGYKATRTTQEDFFLLLELASPSQTSLYFCASSDAGVSQNTLYFGAGTRLSVL
5 | recognises | mTCR-3 (TCR, V domains shown) Valpha: QQKVQQSPESLIVPEGGMASLNCTSSDRNVDYFWWYRQHSGKSPKMLMSIFSNGEKEEGRFTVHLNKASLHTSLHIRDSQPSDSALYLCAASMAGGYKVVFGSGTRLLVSP Vbeta: EAAVTQSPRNKVTVTGGNVTLSCRQTNSHNYMYWYRQDTGHGLRLIHYSYGAGNLQIGDVPDGYKATRTTQEDFFLLLELASPSQTSLYFCASSDAGTAQNTLYFGAGTRLSVL
6 | recognises | mTCR-38 (TCR, V domains shown) Valpha: QQKVQQSPESLIVPEGGMASLNCTSSDRNVDYFWWYRQHSGKSPKMLMSIFSNGEKEEGRFTVHLNKASLHTSLHIRDSQPSDSALYLCAATLTGGYKVVFGSGTRLLVSP Vbeta: EAAVTQSPRNKVTVTGGNVTLSCRQTNSHNYMYWYRQDTGHGLRLIHYSYGAGNLQIGDVPDGYKATRTTQEDFFLLLELASPSQTSLYFCASSDAGTSQNTLYFGAGTRLSVL
7 | recognises | mTCR-17 (TCR, V domains shown) Valpha: QQKVQQSPESLIVPEGGMASLNCTSSDRNVDYFWWYRQHSGKSPKMLMSIFSNGEKEEGRFTVHLNKASLHTSLHIRDSQPSDSALYLCAASMTGGYKVVFGSGTRLLVSP Vbeta: EAAVTQSPRNKVTVTGGNVTLSCRQTNSHNYMYWYRQDTGHGLRLIHYSYGAGNLQIGDVPDGYKATRTTQEDFFLLLELASPSQTSLYFCASSDAGTSQNTLYFGAGTRLSVL
8 | recognises | mTCR-11 (TCR, V domains shown) Valpha: QQKVQQSPESLIVPEGGMASLNCTSSDRNVDYFWWYRQHSGKSPKMLMSIFSNGEKEEGRFTVHLNKASLHTSLHIRDSQPSDSALYLCAASKTGGYKVVFGSGTRLLVSP Vbeta: EAAVTQSPRNKVTVTGGNVTLSCRQTNSHNYMYWYRQDTGHGLRLIHYSYGAGNLQIGDVPDGYKATRTTQEDFFLLLELASPSQTSLYFCASSDAGTSQNTLYFGAGTRLSVL
9 | recognises | mTCR-10 (TCR, V domains shown) Valpha: QQKVQQSPESLIVPEGGMASLNCTSSDRNVDYFWWYRQHSGKSPKMLMSIFSNGEKEEGRFTVHLNKASLHTSLHIRDSQPSDSALYLCAASIVGGYKVVFGSGTRLLVSP Vbeta: EAAVTQSPRNKVTVTGGNVTLSCRQTNSHNYMYWYRQDTGHGLRLIHYSYGAGNLQIGDVPDGYKATRTTQEDFFLLLELASPSQTSLYFCASSDHGTGQNTLYFGAGTRLSVL
